From paper PMC6627510 (2019) come the findings set out here.

For the assay, the target named is Stl_(SaPIbov1) protein (staphylococcal repressor) (Staphylococcus aureus). In words: ITC.

B1: Escherichia coli dUTPase Q93R mutant (enzyme)
chain: not shown
B1: the Kd stood at 97.2 nM.

B2: Escherichia coli dUTPase Q93H mutant (enzyme)
chain: not shown
Consider B2, for which the Kd came out at 60.8 nM.
